Data as given in publication doi:10.1101/2022.05.03.490496.

Target: amino-terminal ∼1400 amino-acid segment of human MUC2 (human)
Experiment: western blot of disulfide-bonded dimers

stoichiometry N: 2
Substance: amino-terminal ∼1400 amino-acid segment of human MUC2 (domain or fragment)
